Test results published in patent US20140087995A1 (published 2014).
One block for each binder: values may come before it. Numbered stars: 1 amine (or outer) side, 2 acyl side, 3 side chain; on linkers, the order of the positions; unused ones are H or OH. Bridge positions count the residues as written; N and C are the ends. Side chains are listed from the residue outwards. Ends that are not written are not given here. * marks the point of attachment. C20 diacid = O=C(O)CCCCCCCCCCCCCCCCCCC(=O)*; γGlu = O=C(O)[C@H](CCC(=O)[*:2])N[*:1]

How the values were obtained:
rat calcitonin receptor [1] = biological target: T1, rat calcitonin receptor (rat, UniProt P32214 25-516); assay: ratio IC50 rat calcitonin receptor / IC50 rat amylin receptor (reference)
T1 construct: whole, on cells; Membranes of transiently transfected BHK tk'ts 13 cells (Assay VIII); also called rCTR
T1 sequence (looked up): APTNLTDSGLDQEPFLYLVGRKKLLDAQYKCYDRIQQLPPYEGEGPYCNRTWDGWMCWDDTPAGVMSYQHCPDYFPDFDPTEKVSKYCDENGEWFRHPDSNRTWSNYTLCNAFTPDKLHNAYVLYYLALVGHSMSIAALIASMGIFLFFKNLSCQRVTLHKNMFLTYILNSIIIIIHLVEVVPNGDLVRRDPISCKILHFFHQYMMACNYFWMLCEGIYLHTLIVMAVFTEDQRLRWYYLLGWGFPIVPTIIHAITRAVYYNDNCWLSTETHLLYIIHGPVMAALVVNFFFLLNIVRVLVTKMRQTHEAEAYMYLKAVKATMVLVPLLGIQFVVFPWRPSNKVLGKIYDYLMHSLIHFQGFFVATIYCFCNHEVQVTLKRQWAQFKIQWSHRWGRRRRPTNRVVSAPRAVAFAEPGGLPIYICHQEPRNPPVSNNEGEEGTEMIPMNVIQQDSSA

[2] = biological target: T2, human calcitonin receptor (human, UniProt P30988 25-474); assay: ratio IC50 human calcitonin receptor / IC50 human amylin receptor (reference)
T2 construct: whole, on cells; Membranes of a stably transfected BHK cell line (Assay VII); also called hCTR; hCT
T2 sequence (looked up): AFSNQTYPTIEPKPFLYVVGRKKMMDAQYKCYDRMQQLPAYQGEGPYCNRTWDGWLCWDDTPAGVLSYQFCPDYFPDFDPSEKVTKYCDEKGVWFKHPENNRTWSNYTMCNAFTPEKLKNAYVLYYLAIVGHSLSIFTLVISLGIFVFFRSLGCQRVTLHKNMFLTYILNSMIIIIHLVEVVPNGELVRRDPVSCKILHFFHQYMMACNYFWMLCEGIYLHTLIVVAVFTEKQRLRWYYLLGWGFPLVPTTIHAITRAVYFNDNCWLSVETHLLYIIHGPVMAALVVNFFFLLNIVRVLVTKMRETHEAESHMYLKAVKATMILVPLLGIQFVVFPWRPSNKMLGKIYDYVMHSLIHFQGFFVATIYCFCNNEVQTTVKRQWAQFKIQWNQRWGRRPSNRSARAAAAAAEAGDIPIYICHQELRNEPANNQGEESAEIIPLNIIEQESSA
Procedure, shortened: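 Membranes (35 ng/μL final) + SPA beads, 50 mM Hepes pH 7.4 buffer with 1 mM CaCl2, 5 mM MgCl₂, 0.1% OA, 0.02% Tween20; 120 min, 25° C, shaking; centrifuged, counted; IC₅₀ by one-site binding competition.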

rat calcitonin receptor [3] = biological target: T1, rat calcitonin receptor; assay: SPA competition with 125I-calcitonin, membranes of BHK cells with rat calcitonin receptor (Assay VIII)
[4] = biological target: T3, rat amylin receptor (rat calcitonin receptor + rat RAMP 3) (rat, UniProt P32214 25-516; Q9JJ73 23-147); assay: SPA competition with 125I-rat amylin, membranes of BHK cells with rat calcitonin receptor + rat RAMP3 (Assay VI)
T3 construct: whole, on cells; Membranes of transiently transfected BHK tk'ts 13 cells (Assay VI); also called rAmylin-R; rat amylin 3(a) receptor
T3 sequence (looked up) 1: T1 sequence (looked up)
T3 sequence (looked up) 2: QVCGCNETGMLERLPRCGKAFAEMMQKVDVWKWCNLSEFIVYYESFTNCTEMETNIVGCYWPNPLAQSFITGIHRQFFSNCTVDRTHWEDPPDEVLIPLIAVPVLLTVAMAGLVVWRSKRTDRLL

Ratio rCT/rAmylin binding (rat calcitonin receptor [1]): 158
Ratio hCT/hAmylin binding [2]: 14.7
IC50 (rat calcitonin receptor [3]): 452 nM
IC50 [4]: 2.86 nM
B1: N^ε1-[(4S)-4-carboxy-4-[[(4S)-4-carboxy-4-(19-carboxynonadecanoylamino)butanoyl]amino]butanoyl]-[Glu14,Arg17,Pro21,Pro27,Arg34,Glu35]-h-amylin (peptide)
peptide: K([γGlu-γGlu-C20 diacid])CNTATCATQRLAEFLRHSSPNFGAIPSSTNVGRETY-NH2
modifications: disulfide 2-7; N-terminus assumed
SMILES: CC[C@H](C)[C@H](NC(=O)[C@H](C)NC(=O)CNC(=O)[C@H](Cc1ccccc1)NC(=O)[C@H](CC(N)=O)NC(=O)[C@@H]1CCCN1C(=O)[C@H](CO)NC(=O)[C@H](CO)NC(=O)[C@H](Cc1c[nH]cn1)NC(=O)[C@H](CCCNC(=N)N)NC(=O)[C@H](CC(C)C)NC(=O)[C@H](Cc1ccccc1)NC(=O)[C@H](CCC(=O)O)NC(=O)[C@H](C)NC(=O)[C@H](CC(C)C)NC(=O)[C@H](CCCNC(=N)N)NC(=O)[C@H](CCC(N)=O)NC(=O)[C@@H](NC(=O)[C@H](C)NC(=O)[C@@H]1CSSC[C@H](NC(=O)[C@@H](N)CCCCNC(=O)CC[C@H](NC(=O)CC[C@H](NC(=O)CCCCCCCCCCCCCCCCCCC(=O)O)C(=O)O)C(=O)O)C(=O)N[C@@H](CC(N)=O)C(=O)N[C@@H]([C@@H](C)O)C(=O)N[C@@H](C)C(=O)N[C@@H]([C@@H](C)O)C(=O)N1)[C@@H](C)O)C(=O)N1CCC[C@H]1C(=O)N[C@@H](CO)C(=O)N[C@@H](CO)C(=O)N[C@H](C(=O)N[C@@H](CC(N)=O)C(=O)N[C@H](C(=O)NCC(=O)N[C@@H](CCCNC(=N)N)C(=O)N[C@@H](CCC(=O)O)C(=O)N[C@H](C(=O)N[C@@H](Cc1ccc(O)cc1)C(N)=O)[C@@H](C)O)C(C)C)[C@@H](C)O

Ratio rCT/rAmylin binding (rat calcitonin receptor [1]): 84.9
Ratio hCT/hAmylin binding [2]: 46.5
IC50 (rat calcitonin receptor [3]): 196 nM
IC50 [4]: 2.31 nM
B2: N^ε1-[(4S)-4-carboxy-4-[[(4S)-4-carboxy-4-(19-carboxynonadecanoylamino)butanoyl]amino]butanoyl]-[Glu14,Arg17,Pro21,Pro27,Arg34]-h-amylin (peptide)
peptide: K([γGlu-γGlu-C20 diacid])CNTATCATQRLAEFLRHSSPNFGAIPSSTNVGRNTY-NH2
modifications: disulfide 2-7; N-terminus assumed
SMILES: CC[C@H](C)[C@H](NC(=O)[C@H](C)NC(=O)CNC(=O)[C@H](Cc1ccccc1)NC(=O)[C@H](CC(N)=O)NC(=O)[C@@H]1CCCN1C(=O)[C@H](CO)NC(=O)[C@H](CO)NC(=O)[C@H](Cc1c[nH]cn1)NC(=O)[C@H](CCCNC(=N)N)NC(=O)[C@H](CC(C)C)NC(=O)[C@H](Cc1ccccc1)NC(=O)[C@H](CCC(=O)O)NC(=O)[C@H](C)NC(=O)[C@H](CC(C)C)NC(=O)[C@H](CCCNC(=N)N)NC(=O)[C@H](CCC(N)=O)NC(=O)[C@@H](NC(=O)[C@H](C)NC(=O)[C@@H]1CSSC[C@H](NC(=O)[C@@H](N)CCCCNC(=O)CC[C@H](NC(=O)CC[C@H](NC(=O)CCCCCCCCCCCCCCCCCCC(=O)O)C(=O)O)C(=O)O)C(=O)N[C@@H](CC(N)=O)C(=O)N[C@@H]([C@@H](C)O)C(=O)N[C@@H](C)C(=O)N[C@@H]([C@@H](C)O)C(=O)N1)[C@@H](C)O)C(=O)N1CCC[C@H]1C(=O)N[C@@H](CO)C(=O)N[C@@H](CO)C(=O)N[C@H](C(=O)N[C@@H](CC(N)=O)C(=O)N[C@H](C(=O)NCC(=O)N[C@@H](CCCNC(=N)N)C(=O)N[C@@H](CC(N)=O)C(=O)N[C@H](C(=O)N[C@@H](Cc1ccc(O)cc1)C(N)=O)[C@@H](C)O)C(C)C)[C@@H](C)O
notes: also called compound 88
